pIC50: −log10 of the molar value.
Experiments:
[1] = target: FcγRIIa H131 (CD32a) on cells (human) (UniProt P12318); assay: TR-FRET competition (CisBio) on cells bearing labeled receptor, vs labeled competitor antibody
[2] = target: FcγRIIb on cells (TR-FRET assay) (UniProt P31994); assay: as above
[3] = target: FcγRIIIa V158 on cells (TR-FRET assay) (UniProt P08637); assay: as above
[4] = target: human recombinant CD64 (Fc gamma receptor I) (human) (UniProt P12314); assay: SPR (Biacore T200), construct captured on Protein A, soluble CD64 as analyte
Sequence of human recombinant CD64 (Fc gamma receptor I) (human) (P12314 16-288 limits assumed): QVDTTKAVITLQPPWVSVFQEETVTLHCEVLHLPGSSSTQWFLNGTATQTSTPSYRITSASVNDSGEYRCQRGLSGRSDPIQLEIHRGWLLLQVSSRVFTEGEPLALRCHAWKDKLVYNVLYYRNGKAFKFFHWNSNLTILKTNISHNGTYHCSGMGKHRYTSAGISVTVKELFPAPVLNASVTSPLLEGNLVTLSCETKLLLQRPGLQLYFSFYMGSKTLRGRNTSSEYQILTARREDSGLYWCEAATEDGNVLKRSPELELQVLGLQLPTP

[5] = target: FcγRIIIa on effector cells (Jurkat/FcγRIIIa cells, NK cells) (UniProt P08637); assay: cell-based or functional assay
Sequence of FcγRIIIa on effector cells (Jurkat/FcγRIIIa cells, NK cells) (P08637 17-254): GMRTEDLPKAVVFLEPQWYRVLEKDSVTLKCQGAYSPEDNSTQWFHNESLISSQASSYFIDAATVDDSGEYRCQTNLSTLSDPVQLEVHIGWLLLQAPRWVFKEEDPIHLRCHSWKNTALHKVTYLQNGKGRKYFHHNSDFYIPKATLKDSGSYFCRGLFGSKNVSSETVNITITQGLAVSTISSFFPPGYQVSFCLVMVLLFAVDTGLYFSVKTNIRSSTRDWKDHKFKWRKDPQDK

Sequence of FcγRIIa H131 (CD32a) on cells (human) (P12318 34-317): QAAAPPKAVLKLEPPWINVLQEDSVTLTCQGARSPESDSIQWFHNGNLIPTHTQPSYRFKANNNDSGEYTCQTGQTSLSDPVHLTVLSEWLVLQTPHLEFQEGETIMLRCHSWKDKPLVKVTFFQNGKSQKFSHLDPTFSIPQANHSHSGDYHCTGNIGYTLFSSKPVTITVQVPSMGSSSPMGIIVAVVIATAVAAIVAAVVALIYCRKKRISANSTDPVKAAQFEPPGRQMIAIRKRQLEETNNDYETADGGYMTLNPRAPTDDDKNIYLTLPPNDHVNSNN
Sequence of FcγRIIb on cells (TR-FRET assay) (P31994 43-310 limits assumed): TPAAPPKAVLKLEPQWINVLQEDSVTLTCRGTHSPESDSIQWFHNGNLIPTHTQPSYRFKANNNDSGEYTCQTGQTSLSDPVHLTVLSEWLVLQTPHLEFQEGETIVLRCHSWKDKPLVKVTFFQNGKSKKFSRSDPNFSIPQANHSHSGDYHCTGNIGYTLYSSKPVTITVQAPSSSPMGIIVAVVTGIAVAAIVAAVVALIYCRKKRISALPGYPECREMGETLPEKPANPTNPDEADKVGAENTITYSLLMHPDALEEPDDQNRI
Sequence of FcγRIIIa V158 on cells (TR-FRET assay) (P08637 17-254 F176V limits assumed): as the sequence (P08637 17-254) above, with F160V counted along it

| Substance | pIC50 [1] | pIC50 [2] | pIC50 [3] | CD64 Valency by SPR [4] | EC50 (nM), Mean; FcyRIIIa signaling in an ADCC reporter assay [5] [nM] | EC50 (nM), Mean; ADCC in KILR-A549 cells with NK cells [5] [nM] |
| --- | --- | --- | --- | --- | --- | --- |
| anti-CD20 monoclonal antibody with the CDRs of Gazyva (obinutuzumab) | 5.90 | 5.48 | 6.37 | 1.5 | – | – |
| avelumab anti-PD-L1 monoclonal antibody, fucosylated (S1A-AA-Ave-001, generated in-house) | – | – | – | 1.3 | 0.049 | – |
| avelumab anti-PD-L1 monoclonal antibody, afucosylated | – | – | – | – | – | 0.0054 |

Source: patent US20210147549A1
